The results in this text go back to US6541254B1, “Glycosylation variants of iduronate 2-sulfatase” (Women's and Children's Hospital, priority 1991, dated 2003).

A value given as a limit tells only on which side of the number the result lay.

One data set relates to MPS II cells (SF-1779). In words: Endocytosis of rIDS with or without mannose-6-phosphate. It is filed as cell-based, human. The conditions noted are these: rIDS at 5×10^4 and 5×10^3 pmol/min per ml, 5 mM mannose-6-phosphate. As for the experimental part: Cells from SF-1779 were plated in 20 wells (3.83 cm^2) and allowed to reach confluency. Wells 1 to 4 were untreated controls. To each of wells 5 to 12 and 13 to 20 was added 1.0 ml of medium containing rIDS at 5×10^4 pmol/min per ml and 5×10^3 pmol/min per ml respectively. In addition the medium in wells 9 to 12 and 17 to 20 was made 5 mM mannose-6-phosphate. The cells were then incubated for 6 hours after which time they were rinsed with medium and fresh medium added. The cells were incubated overnight and then harvested, washed and lysed as described above. The cell lysates were dialysed against 5 mM-sodium acetate, pH 4.0, for 16 h at 4° C. and then analysed for IDS activity and total protein.

The subject of data set [1] is MPS II skin fibroblasts (SF-635). In words: Subcellular fractionation of rIDS-treated cells on Percoll density gradients. Format: cell-based, human. The conditions noted are these: corrected MPS II cells; Percoll gradient of post-nuclear supernatant. On the procedure: Cells from SF-635 were grown to confluency in 75 cm^2 flasks and then exposed to medium supplemented with 5×10^4 pmol/min per ml rIDS. The cells were incubated for 72 h then harvested and fractionated on Percoll density gradients as described in Anson el al (27). The resulting gradient was collected in 1.0 ml fractions by bottom puncture and the fractions analysed for IDS and β-hexosaminidase activity.

Data set [2] concerns MPS II fibroblasts (SF-635 and SF-1779). In words: Correction of MPS II fibroblasts by rIDS. The note with it: for 35S-cpm/mg Cell Protein / β-Hexosaminidase activity in cell lysate / IDS activity in cell lysate: 5 × 10^4 pmol/min per ml rIDS, 72 hours; for IDS activity in cell lysate: undialysed lysate. Format: cell-based, human. On the procedure: Human diploid fibroblasts were established from skin biopsies submitted to this hosptial for diagnosis (28). Cell lines were maintained according to established procedures in BME, 10% v/v FCS and antibiotics unless otherwise stated. The two MPS II skin fibroblast cell lines used in this study (SF-635 and SF-1779) both have low residual IDS activity.
(§1) Media samples, or cell lysates prepared by six cycles of freeze/thaw in 0.5 M-NaCl/20 mM-Tris/HCl, pH 7.0, were clarified by microcentrifugation (12,000×g, 4° C., 5 min) and were either assayed directly or after dilution in assay buffer. […] IDS was assayed using the radiolabelled disaccharide substrate IdoA2S-anM6S (3). Protein estimations were according to the method of Lowry et al (29).
The fluorogenic substrate 4-methylumbelliferyl-2-acetamido-2-deoxy-β-D-glucopyranoside was used to measure β-hexosaminidase activity (31).
For these experiments IDS was obtained from CHOEFI2S-9 cells cultured in CHO-SFM medium suppplemented with 10 mM-NH4C1 and antibiotics. […] Fibroblasts from a normal individual (SF-3409) and from two MPS II patients (SF-635 and SF-1779) were grown to confluency in 25 cm^2 flasks and radiolabelled with Na2^35SO4 as previously described (27). The labelled cells were then exposed to 5×10^4 pmol/min per ml of rIDS for 72 hours. After harvesting the cells by trypsin treatment and washing by centrifugation/resuspension in PBS, the cell pellet was resuspended in 100 μl of 20 mM-Tris/HCl, pH 7.0/0.5 M-NaCl, and the cell lysates prepared as described above. The cell extracts were analysed for IDS activity, total protein, β-hexosaminidase activity and radioactivity.

The nature of data set [3]: Catalytic properties of IDS with radiolabelled disaccharide substrate. It is filed as biochemical. The note with it: for Specific Activity / pH Optimum: IdoA2S-anM6S substrate; for Km / Vmax: IdoA2S-anM6S, 50 mM sodium acetate pH 4.5, 500 μg/ml BSA. As for the experimental part: as §1
(§2) The rIDS was purified from the collected medium by a 3-step column procedure. The medium was dialysed overnight at 4° C. against 30 mM-Tris/HCl, pH 7.0/10% v/v glycerol/0.1 mM-DTE/3 mM-NaN3 (buffer A) and was applied to a PBE94 column (8 cm×1.5 cm) equilibrated in buffer A (flow-rate 1.0 ml/min) and then washed with 100 ml of buffer A. Bound proteins were […] with polybuffer 74 that had been diltured 1:18 with water, the pH adjusted to 4.0 with HCl and the solution made 10% v/v in glycerol, 0.1 mM-DTE and 3 mM-NaN3. The column was further eluted with 100 ml 15 mM-ditheriothreitol/3 mM-NaN3 (buffer B). The rIDS eluted in buffer B was applied at a flow-rate of 1.0 ml/min to a Blue A agarose column (6 cm×0.7 cm) also equilibrated in buffer B. The rIDS activity from this step was applied in 1.0 ml volumes to an LKB Ultrachrom GTi f.p.l.c. system with a TSK G3000SW Ultrapac column (30 cm×0.8 cm) equilibrated and eluted in buffer B at a flow-rate of 0.5 ml/min and pressure of 150 kPa. Fractions containing rIDS activity were pooled and analysed under denaturing and non-denaturing condition on SDS-PAGE (10% w/v acrylamide) to estimate apparent subunit size. Gels were stained with either Gradipure Colloidal Electrophoresis Gel Stain (Gradipure, Pyrmont, NSW) or silver stained accordinng to the method of Merril et al (32). Native molecular mass was determined using the f.p.l.c. system as described elsewhere (3) Kinetic (Km, V max, pH optima) and inhibition data were obtained as previously described (3).
Although both the liver and rIDS show a similar Km towards the disaccharide substrate (IdoA2S-anM6S) in the standard assay (50 mM sodium acetate pH 4.5 and 500 μg/ml BSA) they have a substantially different V max. […] Alternatively, this may reflect a difference between enzyme produced in CHO cells and in liver. Both the (CHO) recombinant and (liver) mature form of the enzyme have similar pH optima and specific activities (Table 2).

Data set [4] is described as follows: Chromatofocusing on PBE94. Format: physicochemical. The note with it: majority of rIDS (pool B). As for the experimental part:
as §2, with “Gels were stained with either Gradipure Colloidal Electrophoresis Gel Stain (Gradipure, Pyrmont, NSW) or silver stained accordinng to the method of Merril et al (32).” left out

B1: rIDS: Recombinant human iduronate 2-sulfatase, highly glycosylated, secreted by CHO-K1 clonal line CHOEFI2S-9 (protein)
chain: SETQANSTTDALNVLLIIVDDLRPSLGCYGDKLVRSPNIDQLASHSLLFQNAFAQQAVCAPSRVSFLTGRRPDTTRLYDFNSYWRVHAGNFSTIPQYFKENGYVTMSVGKVFHPGISSNHTDDSPYSWSFPPYHPSSEKYENTKTCRGPDGELHANLLCPVDVLDVPEGTLPDKQSTEQAIQLLEKMKTSASPFFLAVGYHKPHIPFRYPKEFQKLYPLENITLAPDPEVPDGLPPVAYNPWMDIRQREDVQALNISVPYGPIPVDFQRKIRQSYFASVSYLDTQVGRLLSALDDLQLANSTIIAFTSDHGWALGEHGEWAKYSNFDVATHVPLIFYVPGRTASLPEAGEKLFPYLDPFDSASQLMEPGRQSMDLVELVSLFPTLAGLAGLQVPPRCPVPSFHVELCREGKNLLKHFRFRDLEEDPYLPGNPRELIAYSQYPRPSDIPQWNSDKPSLKDIKIMGYSIRTIDYRYTVWVGFNPDEFLANFSDIHAGELYFVDSDPLQDHNMYNDSQGGDLFQLLMP
On to B1, for which the “Uptake of IDS activity in presence or absence of mannose-6-phosphate” value in the data set with MPS II cells (SF-1779) is recorded as “uptake is mediated via the mannose-6-phosphate receptor”. The “Subcellular localisation of endocytosed enzyme” value in data set [1] is on record as “fractionated with the lysosomal enzyme β-hexosaminidase in the dense fraction of the gradient”. For the same molecule, the “Clearance of stored 35S-labelled material” value in data set [2] (MPS II fibroblasts, rIDS at 5×10^4 pmol/min per ml) is “clearance of this stored product to levels comparable to those seen in control fibroblasts”. The “IDS activity level above normal” value in data set [2] (SF635, rIDS at 5×10^4 pmol/min per ml) was 80 fold. In addition, the “IDS activity level above normal” value in data set [2] (SF1779, rIDS at 5×10^4 pmol/min per ml) is given as 40 fold. Also, the “35S-cpm/mg Cell Protein” value in data set [2] (SF-635 cells labelled with Na2 35SO4) came out at 9018 ± 1988 cpm/mg. In data set [2] (SF-635 cells), the “β-Hexosaminidase activity in cell lysate” value was determined as 257 ± 14 nmol/min per mg and the “IDS activity in cell lysate” value is listed as 1140 ± 50 pmol/min per mg. The “35S-cpm/mg Cell Protein” value in data set [2] (SF-1779 cells labelled with Na2 35SO4) is reported as 5136 ± 502 cpm/mg. In addition, in data set [2] (SF-1779 cells), the “β-Hexosaminidase activity in cell lysate” value is 118 ± 11 nmol/min per mg and the “IDS activity in cell lysate” value amounted to 562 ± 99 pmol/min per mg. Further, the “Effect on activity of second lysosomal enzyme β-hexosaminidase” value in data set [2] (endocytosis of IDS in MPS II fibroblasts) is reported as “not affected”. In addition, in data set [3], the “Specific Activity” value was found to be 20.8 μmol/min per mg; the “pH Optimum” value stood at 4.5; the Km – broadly, the substrate concentration at which the rate is half of its maximum – stood at 3 µM; the Vmax was 3.35 μmol/min per mg. The molecule also returned a pI in data set [4] of less than 4.0.

B2: Liver IDS: Naturally glycosylated mature iduronate 2-sulfatase purified from human liver (protein, UniProt P22304 34-455; P22304 456-550, looked up)
Iduronate 2-sulfatase 42 kDa …: TDALNVLLIIVDDLRPSLGCYGDKLVRSPNIDQLASHSLLFQNAFAQQAVCAPSRVSFLTGRRPDTTRLYDFNSYWRVHAGNFSTIPQYFKENGYVTMSVGKVFHPGISSNHTDDSPYSWSFPPYHPSSEKYENTKTCRGPDGELHANLLCPVDVLDVPEGTLPDKQSTEQAIQLLEKMKTSASPFFLAVGYHKPHIPFRYPKEFQKLYPLENITLAPDPEVPDGLPPVAYNPWMDIRQREDVQALNISVPYGPIPVDFQRKIRQSYFASVSYLDTQVGRLLSALDDLQLANSTIIAFTSDHGWALGEHGEWAKYSNFDVATHVPLIFYVPGRTASLPEAGEKLFPYLDPFDSASQLMEPGRQSMDLVELVSLFPTLAGLAGLQVPPRCPVPSFHVELCREGKNLLKHFRFRDLEEDPYLPG
Iduronate 2-sulfatase 14 kDa …: NPRELIAYSQYPRPSDIPQWNSDKPSLKDIKIMGYSIRTIDYRYTVWVGFNPDEFLANFSDIHAGELYFVDSDPLQDHNMYNDSQGGDLFQLLMP
modifications: natural glycosylation, liver-purified
notes: Naturally glycosylated mature iduronate 2-sulfatase purified from human liver
B2: in data set [3], the “Specific Activity” value was found to be 11.9 μmol/min per mg, the “pH Optimum” value turned out to be 4.5, the Km came out at 4 µM and the Vmax amounted to 80 μmol/min per mg.
